Results on 4 molecules are retold here after paper PMC5059719, “Tetrameric structure of the restriction DNA glycosylase R.PabI in complex with nonspecific double-stranded DNA” (Scientific Reports, 2016).

One series concerns the target T1, R.PabI R32A E63A (Pyrococcus abyssi, UniProt Q9V2B6 8-226, R32A;E63A).
T1 sequence: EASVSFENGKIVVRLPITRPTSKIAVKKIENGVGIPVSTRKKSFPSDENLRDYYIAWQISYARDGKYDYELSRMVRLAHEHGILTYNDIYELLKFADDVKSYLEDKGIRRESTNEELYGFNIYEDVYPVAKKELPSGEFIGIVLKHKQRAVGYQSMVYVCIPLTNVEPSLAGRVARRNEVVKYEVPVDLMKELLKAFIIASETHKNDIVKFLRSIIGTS
Description: X-ray crystallography; 1.9 A; tetramer sandwiches dsDNA; 0.2 M calcium acetate, 0.1 M imidazole pH 8.0, 10% PEG8000; EMSA: 0.1 uM DNA, 0.1-12.8 uM R.PabI dimer, 10 mM MES pH 6.0, 300 mM NaCl, 50 uM poly-dT (40 nt) competitor, 30 min at 4 C; 12% PAGE in 0.5x TBE at 4 C. Particulars: protein: recombinant; chain copies: 4; blunt; self-complementary, 2 copies of S1. Background: Mobility shift assays separate free from complexed probe on a gel.

In another series the target is T2, R.PabI Y68F R70D D71R (Pyrococcus abyssi, UniProt Q9V2B6 8-226, Y68F;R70D;D71R).
T2 sequence: T1 sequence with A25R, A56E, Y61F, R63D, D64R
Briefly: EMSA; similar to Y68F; poly-dT competitor; EMSA: 0.1 uM DNA, 0.1-12.8 uM R.PabI dimer, 10 mM MES pH 6.0, 300 mM NaCl, 50 uM poly-dT (40 nt) competitor, 30 min at 4 C; 12% PAGE in 0.5x TBE at 4 C. Particulars: protein: recombinant; chain copies: 4; label: 5'-fluorescein; blunt; self-complementary, 2 copies of S1.

In another series the target is T3, R.PabI Y68F R70D (Pyrococcus abyssi, UniProt Q9V2B6 8-226, Y68F;R70D).
T3 sequence: T1 sequence with A25R, A56E, Y61F, R63D
Briefly: EMSA; supershift only, about the same as Y68F; poly-dT competitor; EMSA: 0.1 uM DNA, 0.1-12.8 uM R.PabI dimer, 10 mM MES pH 6.0, 300 mM NaCl, 50 uM poly-dT (40 nt) competitor, 30 min at 4 C; 12% PAGE in 0.5x TBE at 4 C. Particulars: protein: recombinant; chain copies: 4; label: 5'-fluorescein; blunt; self-complementary, 2 copies of S1.

Series [1] deals with T4, R.PabI Y68F (Pyrococcus abyssi, UniProt Q9V2B6 8-226, Y68F).
T4 sequence: T1 sequence with A25R, A56E, Y61F
Briefly: EMSA; predominant supershift (tetramer), dimer band very weak; poly-dT competitor; EMSA: 0.1 uM DNA, 0.1-12.8 uM R.PabI dimer, 10 mM MES pH 6.0, 300 mM NaCl, 50 uM poly-dT (40 nt) competitor, 30 min at 4 C; 12% PAGE in 0.5x TBE at 4 C. Particulars: protein: recombinant; chain copies: 2; label: 5'-fluorescein; blunt; self-complementary, 2 copies of S1.

The target in the next series is T5, R.PabI Y68F D71R (Pyrococcus abyssi, UniProt Q9V2B6 8-226, Y68F;D71R).
T5 sequence: T1 sequence with A25R, A56E, Y61F, D64R
Briefly: EMSA; dimer shift at 0.2-1.6 uM plus supershift; tetramerization inhibited; poly-dT competitor; EMSA: 0.1 uM DNA, 0.1-12.8 uM R.PabI dimer, 10 mM MES pH 6.0, 300 mM NaCl, 50 uM poly-dT (40 nt) competitor, 30 min at 4 C; 12% PAGE in 0.5x TBE at 4 C. Particulars: protein: recombinant; chain copies: 2; label: 5'-fluorescein; blunt; self-complementary, 2 copies of S1.

Series [2] deals with T4, R.PabI Y68F. Briefly: EMSA; about the same binding as co-crystallization DNA; poly-dT competitor; EMSA: 0.1 uM DNA, 0.1-12.8 uM R.PabI dimer, 10 mM MES pH 6.0, 300 mM NaCl, 50 uM poly-dT (40 nt) competitor, 30 min at 4 C; 12% PAGE in 0.5x TBE at 4 C. Particulars: protein: recombinant; chain copies: 2; label: 5'-fluorescein; blunt; self-complementary, 2 copies of S2.
For series [3], the target named is T4, R.PabI Y68F. Description: EMSA; dimer shift at low concentration, supershift at high; poly-dT competitor; EMSA: 0.1 uM DNA, 0.1-12.8 uM R.PabI dimer, 10 mM MES pH 6.0, 300 mM NaCl, 50 uM poly-dT (40 nt) competitor, 30 min at 4 C; 12% PAGE in 0.5x TBE at 4 C. The note with it: protein: recombinant; chain copies: 2; label: 5'-fluorescein; blunt; self-complementary, 2 copies of S3.

Residue numbers refer to the chain shown, from its start.

B1: 20 bp nonspecific dsDNA (co-crystallization) (dsDNA)
DNA 1: GCACTAGTTCGAACTAGTGC
DNA 2: GCACTAGTTCGAACTAGTGC
B1: in the series with R.PabI R32A E63A, the binding result is given as “binds”.

B2: 20 bp nonspecific probe (same sequence as co-crystallization) (dsDNA)
DNA 1: GCACTAGTTCGAACTAGTGC
DNA 2: GCACTAGTTCGAACTAGTGC
Turning to B2, the binding result with R.PabI Y68F R70D D71R, with R.PabI Y68F R70D, with R.PabI Y68F [1] and with R.PabI Y68F D71R was “binds” throughout.

B3: 20 bp nonspecific probe without GT, TA, AC steps (dsDNA)
DNA 1: GCATCGATTCGAATCGATGC
DNA 2: GCATCGATTCGAATCGATGC
Take B3: in the series with R.PabI Y68F [2], the binding result was “binds”.

B4: 20 bp specific probe (GTAC) (dsDNA)
DNA 1: GCATAGCTGTACAGCTATGC
DNA 2: GCATAGCTGTACAGCTATGC
In the case of B4, the binding result in the series with R.PabI Y68F [3] is recorded as “binds”.
